T1: recombinant human CD2 (Homo sapiens, UniProt P06729)
T1 construct: transiently produced and purified from HEK293 cells along with the CD2 extracellular domain; made in house; host or cells: HEK293 / HEK293F cells (transient expression)
T1 sequence (P06729 with tags, fused parts or gaps): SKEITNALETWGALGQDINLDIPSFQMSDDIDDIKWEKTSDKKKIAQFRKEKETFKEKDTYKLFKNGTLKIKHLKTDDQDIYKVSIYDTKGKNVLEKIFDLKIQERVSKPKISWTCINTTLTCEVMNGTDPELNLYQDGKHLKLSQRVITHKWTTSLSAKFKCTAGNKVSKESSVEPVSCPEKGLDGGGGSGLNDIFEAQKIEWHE


Assays:
[1] = Thermal stability by differential scanning fluorimetry (DSF); format: physicochemical; conditions: Sypro Orange; 25° C. to 95° C. at 0.5° C./minute
Experimental: Disulfide stabilized variants were assessed for improved thermal stability using both differential scanning calorimetry (DSC) and differential scanning fluorimetry (DSF) using standard techniques. For DSF, 1-3 ug of each construct was add to 1× Sypro Orange (Thermo-Fisher) in 25 ul total volume in 96-well PCR plate. Using a Bio-Rad CFX96 RT-PCR system equipped with C1000 Thermal Cycler, the temperature was increased from 25° C. to 95° C. at 0.5° C./minute and the fluorescence monitored. The manufacturer-supplied software was used to determine Tm.

[2] = Thermal stability by differential scanning calorimetry (DSC); format: physicochemical; conditions: HBS, 0.5 mg/mL; 25° C. to 100° C. at 1° C./minute
Experimental: For DSC, all samples were dialyzed into HEPES-buffered saline (HBS) and diluted to final concentration of 0.5 mg/mL. Tm and Tonset were determined using a MicroCal VP-Capillary DSC system (Malvern) by increasing temperature from 25° C. to 100° C. at 1° C./minute with a filtering period of 2 seconds and a mid-gain setting.

[3] = target: T1, recombinant human CD2; test: Isothermal calorimetry (ITC) binding affinity of CD58 variants; conditions: recombinant human CD2 (100 μM) titrated into 10 μM CD58 variant in HBS, apparent KD
Experimental: To ensure the binding affinity remained uncompromised by the additional of the stabilizing disulfide variance, isothermal calorimetry (ITC) was performed on the resulting recombinant CD58 proteins to determine their apparent KD and binding stoicheometry (n) to recombinant human CD2.
Briefly, recombinant human CD2 and recombinant human CD58 variants were dialyzed into HEPES-buffered saline (HBS). CD2 was diluted to final concentration of 100 μM, CD58 variants were diluted to 10 μM. CD2 was titrated into 10 μM of CD58 variants via multiple injections and ΔH (kcal/mole) determined using a MicroCal VP-ITC isothermal titration calorimeter (Malvern). Titrations of CD2 into HBS were used as a reference and KD and n determined from the resulting data.

[4] = system: BCMA+ multiple myeloma cell lines; test: In vitro RTCC assays of anti-BCMA x anti-CD3 bispecific antibodies; format: cell-based; conditions: tested as anti-BCMA x anti-CD3 bispecific antibodies having VH and VL sequences of the binder
Excerpt: (§1) Anti-BCMA x anti-CD3 bispecific antibodies having VH and VL sequences of AB1, AB2, and AB3 were produced.

[5] = system: KMS11-Luc multiple myeloma orthotopic tumor; test: KMS11-Luc multiple myeloma orthotopic tumor model; format: in vivo; conditions: tested as anti-BCMA x anti-CD3 bispecific antibodies having VH and VL sequences of the binder; NSG mice
Excerpt: as §1

Row | Kd [3] [nM] | Molecule | Tm (° C.) By Differential Scanning Fluorimetry (DSF) [1] [°C] | Tm (° C.) By Differential Scanning Calorimetry (DSC) [2] [°C] | Tmonset (° C.) By Differential Scanning Calorimetry (DSC) [2] [°C] | activity in in vitro RTCC assays [4] | anti-tumor activity [5]
1 | 570 | CD58 Full ECD: recombinant human CD58 full extracellular domain with C-terminal 8×his tag (protein, C-terminal 8xHis tag, recombinant human CD58 full extracellular domain with C-terminal 8×his tag) SQQIYGVVYGNVTFHVPSNVPLKEVLWKKQKDKVAELENSEFRAFSSFKNRVYLDTVSGSLTIYNLTSSDEDEYEMESPNITDTMKFFLYVLESLPSPTLTCALTNGSIEVQCMIPEHYNSHRGLIMYSWDCPMEQCKRNSTSIYFKMENDLPQKIQCTLSNPLFNTTSSIILTTCIPSSGHSRHRGGGGSHHHHHHHH | 59.5 | 65.0 | 48.8 |  | 
2 |  | AB3: anti-BCMA binder, AB3 Family, derived from parental PI-61 (antibody, V domains shown) VH: QVQLVESGGGVVQPGRSLRLSCAASGFTVSSYGMHWVRQAPGKGLEWVAVISYTGSNKYYADSVKGRFTISRDNSKNTLYLQMNSLRAEDTAVYYCGGSGYALHDDYYGLDVWGQGTLVTVSS VL: QSALTQPASVSGSPGQSITISCTGTSSDVGGYNYVSWYQQHPGKAPKLMIYDVSNRLRGVSNRFSGSKSGNTASLTISGLQAEDEADYYCSSYTSSSALYVFGSGTKVTVL |  |  |  | active | anti-tumor activity
3 |  | IgV V54C_G88C: CD58 domain 1 with V54 and G88 replaced by cysteines to form a disulfide bridge (protein) SQQIYGVVYGNVTFHVPSNVPLKECLWKKQKDKVAELENSEFRAFSSFKNRVYLDTVSCSLTIYNLTSSDEDEYEMESPNITDTMKFFLYVLESGGGGSHHHHHHHH | 76.5 | 80.9 | 66.7 |  | 
4 |  | IgV V45C_M114C: CD58 domain 1 with V45 and M114 replaced by cysteines to form a disulfide bridge (protein) SQQIYGVVYGNVTFHCPSNVPLKEVLWKKQKDKVAELENSEFRAFSSFKNRVYLDTVSGSLTIYNLTSSDEDEYEMESPNITDTCKFFLYVLESGGGGSHHHHHHHH | 63.5 | 72.5 | 49.6 |  | 
5 |  | CD58_IgV: IgV domain (domain 1) of human CD58, without stabilizing disulfide (protein) SQQIYGVVYGNVTFHVPSNVPLKEVLWKKQKDKVAELENSEFRAFSSFKNRVYLDTVSGSLTIYNLTSSDEDEYEMESPNITDTMKFFLYVLESGGGGSHHHHHHHH | 48.5 | 60.9 | 46.3 |  | 
6 |  | IgV V45C_M105C: CD58 domain 1 with V45 and M105 replaced by cysteines to form a disulfide bridge (protein) SQQIYGVVYGNVTFHCPSNVPLKEVLWKKQKDKVAELENSEFRAFSSFKNRVYLDTVSGSLTIYNLTSSDEDEYECESPNITDTMKFFLYVLESGGGGSHHHHHHHH | 48.5 | 66.8 | 43.9 |  | 

From patent US12624118B2, “Trispecific binding molecules against BCMA and uses thereof” (Novartis AG, priority 2019, dated 2026)
